{"source": "patent US9878046B2", "about": "“Adverse side-effects associated with administration of an anti-hyaluronan agent and methods for ameliorating or preventing the side-effects” (Halozyme, Inc., priority 2010, dated 2018)", "key": {"[1]": {"test_system": "BxPC3 pancreatic cancer cell line", "experiment": "Antitumor activity in BxPC3 pancreatic cancer xenograft model", "assay_type": "in vivo, human (xenograft in athymic female nude mice)", "procedure": "Tumor cells from the BxPC3 pancreatic cancer cell line were grown to approximately 80% confluency, trypsinized, collected, washed once in HBSS (Hank's balance salt solution, Mediatech Inc.), and re-suspended in 50% Matrigel in HBSS at 2×10^7 cells/mL on ice before inoculation into animals. Athymic female nude mice (average weight ˜20 g) were inoculated intramuscularly (IM) with 0.05 mL of cell suspension, peritibially, in the left hind leg (adjacent to the tibia periosteum). The tumors in the animals were assessed twice a week and allowed to grow to a mean tumor volume of approximately 250 mm^3 (Day −1; Table 13). Actual tumor volumes were determined using VisualSonics Vevo 770 high-resolution ultrasound.\nThe animals were randomly grouped into 6 groups of 8 animals per group (6+2 satellite mice) and treated with vehicle (API buffer), PEGPH20 (157,500 Units/kg, 4.5 mg/kg), low dose dexamethasone (1.25 mg/kg), high dose dexamethasone (5 mg/kg), PEGPH20 (4.5 mg/kg)+low dose dexamethasone (1.25 mg/kg) and PEGPH20 (4.5 mg/kg)+high dose dexamethasone (5 mg/kg). The dose and frequency of the PEGPH20 (or vehicle) intravenous injections was 157,500 Units/kg or approximately 4.5 mg/kg, on Days 0, 3, 7, 10, 13 and 17 for a total of 6 injections starting on Day 0 (dose volume of 0.1 mL). The doses and frequency of the dexamethasone intraperitonal injections was 1.25 mg/kg at the low dose and 5 mg/kg at the high dose, once a day until Day 17 (QDx17) with a dose volume of 0.1 mL.\nThe tumor volumes of all mice were measured pre-treatment on Days −4 and −1 (mean tumor volume of ˜250 mm^3) and on Days 4, 7, 11, 14 and 17 by capturing images using the VisualSonic ultrasound system and using an ultrasound imaging software program to calculate the tumor volume (Table 13). The percent tumor growth inhibition (% TGI) was calculated as described above in Example 9A."}, "tissue HA (hyaluronan)": {"test_system": "tissue HA (hyaluronan)", "experiment": "Histochemical HA staining of skeletal muscle and skin biopsies", "assay_type": "in vivo, beagle dog", "description": "Twenty-four hours post-dose (Day 60), skeletal muscle biopsies were taken from each of the three treated dogs and also from an untreated control beagle dog. The medial semitendinosis/medial membranosus muscle(s) were targeted for biopsies. The area of the biopsy was shaved using electric clippers and scrubbed using either Chlorhexidine or Povidone-Iodine solutions. Bupivacaine or Lidocaine (2-3 mg/kg) was injected subcutaneously (SC) in the area of the biopsy for local analgesia. The muscle biopsy was collected using a 2-mm-diameter biopsy needle. A gauze sponge was applied with slight pressure to stop any bleeding. Metacam (meloxicam) 0.2 mg/kg was injected SC to control pain. Biopsy samples were placed in Eppendorf tubes or equivalent with approximately 200 μL 10% neutral-buffered formalin (NBF).\nBiopsied tissue samples were stained for tissue HA using a highly specific histochemical staining method. […] The cell nuclei were counterstained with DAPI (4′,6-diamidino-2-phenylindole) reagent. Micrographs were then captured using a Zeiss Microscope (Thornwood, N.Y.) coupled with the Spot imaging program (Diagnostic Instruments, Inc).\nThe medial semitendinosis/medial membranosus muscle(s) were targeted for biopsies. The area of the biopsy was shaved using electric clippers and scrubbed using either Chlorhexidine or Povidone-Iodine solutions. […]"}, "hyaluronan": {"test_system": "hyaluronan", "experiment": "Hyaluronan staining of BxPC3 tumor sections", "assay_type": "in vivo, human (xenograft in athymic female nude mice)", "conditions": "Day 18, dexamethasone low or high dose, PEGPH20 4.5 mg/kg, or both", "procedure": "Tumor tissues from the two satellite mice from all 6 treatment groups in Example 9B.1 above, were harvested by tissue biopsy on Day 18 and stained for the presence of hyaluronan. Tumor biopsies were fixed in 10% NBF for 48 hours, embedded in paraffin, and sectioned. Samples were probed for hyaluronan using a biotinylated HA-binding protein (HABP), then probed with FITC-labeled streptavidin for detection. The cell nuclei were counterstained with DAPI (4′,6-diamidino-2-phenylindole) reagent. Micrographs were then captured using a Zeiss Microscope (Thornwood, N.Y.) coupled with the Spot imaging program (Diagnostic Instruments, Inc).\nHyaluronan expression in the sections was evaluated by the level of green fluorescent intensity in the sections."}, "[2]": {"test_system": "PC3 prostate carcinoma cell line", "experiment": "Antitumor activity in PC3 prostate cancer xenograft model", "assay_type": "in vivo, human (xenograft in athymic male nude mice)", "design": "key to % TGI (% Tumor Growth Inhibition): TR = Tumor Regression", "procedure": "Tumor cells from the PC3 prostate carcinoma cell line were grown to approximately 80% confluency then trypsinized, collected, washed once in HBSS (Hank's balance salt solution, Mediatech Inc.), then re-suspended in 50% Matrigel® in HBSS at 2×10^7 cells/mL on ice before inoculation into animals. Athymic male nude mice (Nu/Nu (Ncr); Taconic Farms; average weight ˜20 g) were inoculated intramuscularly (IM) with 0.05 mL of this cell suspension, peritibially, in the left hind leg (adjacent to the tibia periosteum). The implants in the animals were assessed twice a week and allowed to grow to a mean tumor volume of approximately 500 mm^3 (Day −2; Table 12). Actual tumor volumes were determined using VisualSonics Vevo 770 high-resolution ultrasound, using two perpendicular axial dimensions.\nAnimals were sorted randomly and grouped into 6 groups of 8 mice per group (6+2 satellite mice). Treatment groups were vehicle (API buffer), PEGPH20 (157,500 Units/kg, 4.5 mg/kg), low dose dexamethasone (1.25 mg/kg), high dose dexamethasone (5 mg/kg), PEGPH20 (4.5 mg/kg)+low dose dexamethasone (1.25 mg/kg) and PEGPH20 (4.5 mg/kg)+high dose dexamethasone (5 mg/kg). The dose and frequency of the PEGPH20 (or vehicle) intravenous injections was 157,500 Units/kg or approximately 4.5 mg/kg, every 3rd day starting on Day 0 (Days 0, 3, 6, 9, 12) with a total of 5 injections (Q3Dx5) with a dose volume of 0.1 mL. This dosing and frequency regimen was previously shown to inhibit xenograft tumor growth by 34-70%. The doses and frequency of the dexamethasone intraperitonal injections were 1.25 mg/kg at the low dose and 5 mg/kg at the high dose, once a day until Day 13 (QDx13) with a dose volume of 0.1 mL.\nThe tumor volumes of all mice were measured pre-treatment on Day −2 (average tumor volume of ˜500 mm^3) and on Day 1, 6, 9, 13, 16 and 20 by capturing images using the VisualSonic ultrasound system and using an ultrasound imaging software program to calculate tumor volume (Table 12)."}}}
{"molecule": "PEGPH20 (protein) LNFRAPPVIPNVPFLWAWNAPSEFCLGKFDEPLDMSLFSFIGSPRINATGQGVTIFYVDRLGYYPYIDSITGVTVNGGIPQKISLQDHLDKAKKDITFYMPVDNLGMAVIDWEEWRPTWARNWKPKDVYKNRSIELVQQQNVQLSLTEATEKAKQEFEKAGKDFLVETIKLGKLLRPNHLWGYYLFPDCYNHHYKKPGYNGSCFNVEIKRNDDLSWLWNESTALYPSIYLNTQQSPVAATLYVRNRVREAIRVSKIPDAKSPLPVFAYTRIVFTDQVLKFLSQDELVYTFGETVALGASGIVIWGTLSIMRSMKSCLLLDNYMETILNPYIINVTLAAKMCSQVLCQEQGVCIRKNWNSSDYLHLNPDNFAIQLEKGGKFTVRGKPTLEDLEQFSEKFYCSCYSTLSCKEKADVKDTDAVDVCIADGVCIDAFLKPPMETEEPQIFY", "values": [{"measurement": "Tumor volume", "setting": "[1]; Day 4, PEGPH20 4.5 mg/kg IV x6 and/or dexamethasone 1.25 mg/kg IP QDx17", "value": 350.44, "unit": "mm^3"}, {"measurement": "% TGI (% Tumor Growth Inhibition)", "setting": "[1]; Day 4, PEGPH20 4.5 mg/kg alone or + dexamethasone 1.25 mg/kg", "value": 68, "unit": "%"}, {"measurement": "Tumor volume", "setting": "[1]; Day 7, PEGPH20 4.5 mg/kg IV x6 and/or dexamethasone 1.25 mg/kg IP QDx17", "value": 394.40, "unit": "mm^3"}, {"measurement": "% TGI (% Tumor Growth Inhibition)", "setting": "[1]; Day 7, PEGPH20 4.5 mg/kg alone or + dexamethasone 1.25 mg/kg", "value": 63, "unit": "%"}, {"measurement": "Tumor volume", "setting": "[1]; Day 11, PEGPH20 4.5 mg/kg IV x6 and/or dexamethasone 1.25 mg/kg IP QDx17", "value": 473.50, "unit": "mm^3"}, {"measurement": "% TGI (% Tumor Growth Inhibition)", "setting": "[1]; Day 11, PEGPH20 4.5 mg/kg alone or + dexamethasone 1.25 mg/kg", "value": 60, "unit": "%"}, {"measurement": "Tumor volume", "setting": "[1]; Day 14, PEGPH20 4.5 mg/kg IV x6 and/or dexamethasone 1.25 mg/kg IP QDx17", "value": 596.96, "unit": "mm^3"}, {"measurement": "% TGI (% Tumor Growth Inhibition)", "setting": "[1]; Day 14, PEGPH20 4.5 mg/kg alone or + dexamethasone 1.25 mg/kg", "value": 54, "unit": "%"}, {"measurement": "Tumor volume", "setting": "[1]; Day 17, PEGPH20 4.5 mg/kg IV x6 and/or dexamethasone 1.25 mg/kg IP QDx17", "value": 790.16, "unit": "mm^3"}, {"measurement": "% TGI (% Tumor Growth Inhibition)", "setting": "[1]; Day 17, PEGPH20 4.5 mg/kg alone or + dexamethasone 1.25 mg/kg", "value": 48, "unit": "%"}, {"measurement": "Tumor volume", "setting": "[1]; Day −1 (pre-treatment), PEGPH20 4.5 mg/kg IV x6 and/or dexamethasone 1.25 mg/kg IP QDx17", "value": 275.75, "unit": "mm^3"}, {"measurement": "Tumor volume", "setting": "[1]; Day −4 (pre-treatment), PEGPH20 4.5 mg/kg IV x6 and/or dexamethasone 1.25 mg/kg IP QDx17", "value": 196.87, "unit": "mm^3"}, {"measurement": "hyaluronan staining of skeletal muscle", "setting": "tissue HA (hyaluronan); 24 h after Day 59 dose, antibody-positive dogs", "value": "did not remove extracellular hyaluronan in skeletal muscle samples"}, {"measurement": "hyaluronan staining, post-treatment skeletal muscle and skin", "setting": "tissue HA (hyaluronan); 24 h after first IV dose, PEGPH20 0.3 mg/kg alone, or 0.3 / 1.0 mg/kg + dexamethasone 4 mg BID", "value": "virtually no hyaluronan staining"}, {"measurement": "hyaluronan staining of tumor sections", "setting": "hyaluronan", "value": "almost completely absent"}, {"measurement": "Tumor volume", "setting": "[2]; Day 1, PEGPH20 4.5 mg/kg IV Q3Dx5 and/or dexamethasone 1.25 mg/kg IP QDx13", "value": 394.38, "unit": "mm^3"}, {"measurement": "% TGI (% Tumor Growth Inhibition)", "setting": "[2]; Day 1, PEGPH20 4.5 mg/kg alone or + dexamethasone 1.25 mg/kg", "value": "TR"}, {"measurement": "Tumor volume", "setting": "[2]; Day 6, PEGPH20 4.5 mg/kg IV Q3Dx5 and/or dexamethasone 1.25 mg/kg IP QDx13", "value": 598.39, "unit": "mm^3"}, {"measurement": "% TGI (% Tumor Growth Inhibition)", "setting": "[2]; Day 6, PEGPH20 4.5 mg/kg alone or + dexamethasone 1.25 mg/kg", "value": 71, "unit": "%"}, {"measurement": "Tumor volume", "setting": "[2]; Day 9, PEGPH20 4.5 mg/kg IV Q3Dx5 and/or dexamethasone 1.25 mg/kg IP QDx13", "value": 674.83, "unit": "mm^3"}, {"measurement": "% TGI (% Tumor Growth Inhibition)", "setting": "[2]; Day 9, PEGPH20 4.5 mg/kg alone or + dexamethasone 1.25 mg/kg", "value": 64, "unit": "%"}, {"measurement": "Tumor volume", "setting": "[2]; Day 13, PEGPH20 4.5 mg/kg IV Q3Dx5 and/or dexamethasone 1.25 mg/kg IP QDx13", "value": 827.53, "unit": "mm^3"}, {"measurement": "% TGI (% Tumor Growth Inhibition)", "setting": "[2]; Day 13, PEGPH20 4.5 mg/kg alone or + dexamethasone 1.25 mg/kg", "value": 56, "unit": "%"}, {"measurement": "Tumor volume", "setting": "[2]; Day 16, PEGPH20 4.5 mg/kg IV Q3Dx5 and/or dexamethasone 1.25 mg/kg IP QDx13", "value": 1046.73, "unit": "mm^3"}, {"measurement": "% TGI (% Tumor Growth Inhibition)", "setting": "[2]; Day 16, PEGPH20 4.5 mg/kg alone or + dexamethasone 1.25 mg/kg", "value": 47, "unit": "%"}, {"measurement": "Tumor volume", "setting": "[2]; Day 20, PEGPH20 4.5 mg/kg IV Q3Dx5 and/or dexamethasone 1.25 mg/kg IP QDx13", "value": 1310.85, "unit": "mm^3"}, {"measurement": "% TGI (% Tumor Growth Inhibition)", "setting": "[2]; Day 20, PEGPH20 4.5 mg/kg alone", "value": 41, "unit": "%"}, {"measurement": "Tumor volume", "setting": "[2]; Day −2 (pre-treatment), PEGPH20 4.5 mg/kg IV Q3Dx5 and/or dexamethasone 1.25 mg/kg IP QDx13", "value": 491.10, "unit": "mm^3"}]}
